Measurements taken from PMC10549244 (RSC Chemical Biology, 2023).

Biological target: the molecule itself
Test: crystal structure

B1: SonM, borosin α-N-methyltransferase (wild type) (enzyme, Shewanella oneidensis MR-1)
chain: MGSLVCVGTGLQLAGQISVLSRSYIEHADIVFSLLPDGFSQRWLTKLNPNVINLQQFYAQNGEVKNRRDTYEQMVNAILDAVRAGKKTVCALYGHPGVFACVSHMAITRAKAEGFSAKMEPGISAEACLWADLGIDPGNSGHQSFEASQFMFFNHVPDPTTHLLLWQIAIAGEHTLTQFHTSSDRLQILVEQLNQWYPLDHEVVIYEAANLPIQAPRIERLPLANLPQAHLMPISTLLIPPAKKLEYNYAILAKLGIGPEDLG
stoichiometry N: 2
